Measurements published in patent US20050171004A1, “Use of cardiotrophin-1 to promote wound healing and counteract overt fibrosis” (priority 2003, published 2005).

Columns and labels:
cardiac fibroblasts [1] = assay: 3H-thymidine incorporation (DNA synthesis) proliferation assay; type: cell-based, rat
Method: DNA synthesis was measured by uptake of ^3H-thymidine as previously described (Saward and Zahradka, 1997, Mol Cell Biochem 176: 53-59) with modification. Briefly, 2.5×10^4 cells (counted with a hemacytometer) in DMEM/F12 with 10% FBS were loaded into each well of 24-well culture plates, allowed to attach overnight and rendered quiescent in serum-free DMEM with 100 μM ascorbate for 24 hours. S-phase re-entry in response to CT-1 was measured in two ways: pulse labeling with ^3H-thymidine for 30 minutes every 6 hours, or labeling for the last 30 minutes of 6 or 12 hour incubation. DNA in cell lysate was precipitated with cold 20% trichloroacetic acid (TCA) and filtered through GF/A filters (Fisher). Beta emission from the dried filers was measured with Cytoscint scintillation fluid (ICN Pharmaceuticals, Costa Mesa, Calif.) and a scintillation counter (LS6500, Beckman Coulter, Fullerton, Calif.).

cardiac fibroblasts [2] = assay: Western analysis of cell cycle regulatory proteins (cyclins, Rb); type: cell-based, rat
Method: (§1) Protein concentrations of tissue and cell lysates were determined by the BCA method (Smith et al., 1985, Anal Biochem 150: 76-85). Proteins were separated by 8-12% SDS-PAGE and transferred to PVDF membrane (Roche, Indianapolis, Ind.) for 1 hour at 300 mA for small proteins or for 2 hours at 500 mA for proteins greater than 100 kDa. Membranes were blocked with 5% non-fat skim milk in tris-buffered saline containing 0.2% Tween 20 (TBST). Proteins were visualized with ECL Plus (Amersham) after probing with primary and secondary antibodies. Band intensity was quantified using a CCD camera imaging densitometer (GS670, Bio-Rad Laboratories (Canada) Ltd. Mississauga, Ontario).
Cardiac fibroblasts were isolated from the ventricles of rats and incubated with CT-1 for specified times and at specified concentrations. […] Addition of CT-1 results in S-phase re-entry within 6 hours of stimulation (FIG. 7). […] (FIG. 8). […] To determine the effect of CT-1 on cell cycle regulatory proteins, we incubated cardiac fibroblasts with CT-1 and lysed them at specified times. […] To determine if increased DNA synthesis was accompanied by an increase in cell number, we repeated the experiments in the absence of ^3H-thymidine, detached the cells from the plates and counted the total number of cells.

cardiac fibroblasts [3] = assay: Protein synthesis assay (3H-leucine incorporation); type: cell-based, rat; details: CT-1 for 24 hours
Method: Protein synthesis was determined using the methods of Wolf and Neilson (Wolf and Neilson, 1990, Am J Physiol 259: 768-777). 2.5×10^4 cells (counted with a hemacytometer) were loaded into each well of 24-well plates, allowed to attach overnight, then rendered quiescent in serum free DMEM/F12 for 24 hours. Cells were stimulated with CT-1 for an additional 24 hours in the presence of 2 μCi/mL ^3H-leucine with or without inhibitors of signaling pathways. The culture media was aspirated, cells rinsed twice with phosphate buffered saline and proteins precipitated by two incubations with 10% TCA at room temperature. The precipitated protein was solubilized in 300 μl lysis buffer containing 0.5 M NaOH and 1% Triton X-100 at room temperature for 15 minutes. The lysate was transferred to scintillation vials, and beta emission was determined with 3 ml Ecolume scintillation fluid (ICN Pharmaceuticals) and a scintillation counter (LS6500, Beckman Coulter, Fullerton, Calif.).

cardiac fibroblasts [4] = assay: Collagen synthesis (P1CP radioimmunoassay of conditioned media); type: cell-based, rat; details: CT-1 for 24 hours
Method: Synthesis of mature type I collagen was determined by measuring the concentration of the carboxyterminal propeptide of type I collagen (P1CP) in conditioned media from CT-1 treated or untreated cardiac fibroblasts. 5×10^4 cells were loaded into each well of a 6 well plate, allowed to attach overnight, and serum starved for 24 hours. Cells were treated with CT-1 at specified concentrations for an additional 24 or 48 hours. P1CP content in 0.1 mL conditioned media was determined by radioimmunoassay according to the manufacturer's specification (Diasorin Inc, Stillwater, Minn.). Radioactivity was quantified with a gamma counter (Gamma 5500, Beckman Coulter, Fullerton, Calif.) and the concentration of P1CP was determined by the % B/B0 versus log concentration.

rat cardiac fibroblasts = assay: Boyden chamber migration assay; type: cell-based
Method: Migration of rat cardiac fibroblasts was measured using Boyden chamber (Neuro Probe Inc. Gaithersburg, Md.) assay (Richards and McCullough, 1984, Immunol Commun 13: 49-62). Chemoattractants were diluted in DMEM/F12 and loaded into the lower wells at specified concentrations. The polycarbonate membrane (5 μm pore) was placed over the wells, and 55 μL cell suspension in DMEM/F12 supplemented with 100 μM ascorbate was loaded into each well (1000 cells/mm^2). The chamber was incubated overnight in 5% CO2 and 100% humidity at 37° C. Cells that had migrated through the membrane and become adherent to the lower surface were fixed with methanol and stained with Diff-Quick stain (Dade Behring AG, Düdingen, Switzerland). Cell migration was determined by counting the number of cells per high power field.

cardiac fibroblasts [5] = assay: Wounded monolayer model, cortactin immunostaining; type: cell-based, rat; details: 4 hours after creation of the wound
Method: Cardiac fibroblasts were seeded onto coverslips in 6-well dishes and allowed to proliferate. Once the cells were near confluency, they were serum deprived for 24 hours. A scrape was made down the middle of the coverslip with the blunt end of a 1 ml syringe and the media was changed again. Cells were further incubated in the presence or absence of CT-1 and inhibitors at specified concentrations for specified times. The cells were then subjected to immunofluorescence staining as described herein.

cardiac fibroblasts [6] = assay: Western analysis of myosin light chain phosphorylation; type: cell-based, rat; details: CT-1 10 ng/mL
Method: as §1
The infarct zone is repopulated by interstitial fibroblasts that infiltrate the scar after MI. […] Similar results were obtained when using the Costar Transwell® system (data not shown). To determine how the chemotactic response is transduced, we used specific inhibitors of intracellular signaling pathways. […] This effect could be blunted by co-incubation with AG490 (FIG. 22). […] Since activation of myosin motors is required for effective cell migration, and CT-1 induced migration could be inhibited by co-incubation with a myosin light chain kinase inhibitor, we sought to determine the effect of CT-1 on the phosphorylation status of myosin light chain. Myosin light chain regulates the ATPase activity of myosin heavy chain, and thus overall contractile activity. […] Myosin light chain phosphorylation could be prevented by co-incubation with ML-7 or W7 but not AG490 or PP2 (FIG. 25b).

B1: cardiotrophin-1 (protein, UniProt Q16619 1-201, looked up)
Cardiotrophin-1: MSRREGSLEDPQTDSSVSLLPHLEAKIRQTHSLAHLLTKYAEQLLQEYVQLQGDPFGLPSFSPPRLPVAGLSAPAPSHAGLPVHERLRLDAAALAALPPLLDAVCRRQAELNPRAPRLLRRLEDAARQARALGAAVEALLAALGAANRGPRAEPPAATASAASATGVFPAKVLGLRVCGLYREWLSRTEGDLGQLLPGGSA
notes: gp130 signaling cytokine of the LIF or IL-6 superfamily; 201 amino acids as a mature protein, 21.5 kDa
Q: Which results are given for B1?
A: CT-1 dose of peak 3H thymidine incorporation (maximal DNA synthesis) (cardiac fibroblasts [1]; 6 or 12 hours incubation): 10 to 20 ng/mL; lowest CT-1 concentration with elevated incorporation of 3H thymidine (cardiac fibroblasts [1]; 6 or 12 hours incubation): 1 ng/mL; pathway dependence of CT-1 induced cell proliferation (DNA synthesis) (cardiac fibroblasts [1]; pretreatment with inhibitors, CT-1 10 ng/mL for 12 hours): dependent on Jak, P13-K, MAPK, and Src kinases; time to S-phase re-entry after addition of CT-1 (cardiac fibroblasts [1]; quiescent cells, 10 ng/mL CT-1, 3H-thymidine pulse labeling): ≤ 6 h; phosphorylation of the retinoblastoma protein (cardiac fibroblasts [2]; Rb pS795, pS807/811): hyperphosphorylation; expression of cyclins (cardiac fibroblasts [2]; cyclins A, E, CT-1 for specified times): increase in expression of cyclins; protein synthesis (3H-leucine incorporation) (cardiac fibroblasts [3]): dose-dependent increase in protein synthesis; P1CP expression normalized to the number of cells at the end of the experiment (cardiac fibroblasts [4]; corrected for cell number): apparent decrease in overall mature collagen synthesis; expression of P1CP in the culture media (mature collagen synthesis) (cardiac fibroblasts [4]; not normalized): increased expression of P1CP; cardiac fibroblast migration (rat cardiac fibroblasts; CT-1 gradient, overnight): induced cardiac fibroblast migration in a dose dependent manner; dependence of CT-1 induced migration (rat cardiac fibroblasts; ion channel and myosin light chain kinase function): dependent on functioning potassium channels and myosin light chain kinase; dependence of CT-1 chemotaxis (rat cardiac fibroblasts; specific inhibitors of signaling pathways, integrin inhibitors): dependent on intracellular signaling pathways; localization of cortactin (cardiac fibroblasts [5]): at the leading edge of lamellipodia; phosphorylation of myosin light chain at threonine 18/serine 19 (cardiac fibroblasts [6]): induced phosphorylation
